Here are results for 1 molecule from paper PMC9002611.

The target of this assay is Strep-tagged HypC_(H51A) (E. coli) (UniProt P0AAM3). Kind of assay: pull-down; single-step Strep-tactin affinity enrichment of the Strep-tagged chaperone from extracts of anaerobically grown SHH228 cells co-producing HypD; elution fractions (10 ug protein) on SDS-PAGE, Coomassie stain, densitometry (ImageQuant TL); apparent stoichiometries.

B1: HypD (untagged) (natural protein)
chain: MRFVDEYRAPEQVMQLIEHLRERASHLSYTAERPLRIMEVCGGHTHAIFKFGLDQLLPENVEFIHGPGCPVCVLPMGRIDTCVEIASHPEVIFCTFGDAMRVPGKQGSLLQAKARGADVRIVYSPMDALKLAQENPTRKVVFFGLGFETTMPTTAITLQQAKARDVQNFYFFCQHITLIPTLRSLLEQPDNGIDAFLAPGHVSMVIGTDAYNFIASDFHRPLVVAGFEPLDLLQGVVMLVQQKIAAHSKVENQYRRVVPDAGNLLAQQAIADVFCVNGDSEWRGLGVIESSGVHLTPDYQRFDAEAHFRPAPQQVCDDPRARCGEVLTGKCKPHQCPLFGNTCNPQTAFGALMVSSEGACAAWYQYRQQESEA
On to B1, for which the apparent stoichiometry with HypD, percent lower than for the native chaperone was found to be 85 % lower.
